From article doi:10.1101/2021.11.20.466133

B1: HLDNA (synthetic Holliday junction) (structured_DNA)
DNA 1: ATCGATAGTCTCTAGACAGCATGTCCTAGCAAGCCAGAATTCGGCAGCGT
DNA 2: GACGCTGCCGAATTCTGGCTTGCTAGGACATTCTTTGCCCACGTTGACCC
DNA 3: GGGTCAACGTGGCAAAGAATGTCCTACGTCCGATACGGATAATCGCCAT
DNA 4: ATGGCGATTATCCGTATCGGACGTCGGACATGCTGTCTAGAGACTATCGA
B2: dsDNA 50mer (dsDNA)
DNA 1: GGATACGTAACAACGCTTATGCATCGCCGCCGCTACATCCCTGAGCTGAC
DNA 2: GTCAGCTCAGGGATGTAGCGGCGGCGATGCATAAGCGTTGTTACGTATCC

Target: T1, MsDisA (Mycobacterium smegmatis mc2155, UniProt A0R564 1-372)
T1 sequence: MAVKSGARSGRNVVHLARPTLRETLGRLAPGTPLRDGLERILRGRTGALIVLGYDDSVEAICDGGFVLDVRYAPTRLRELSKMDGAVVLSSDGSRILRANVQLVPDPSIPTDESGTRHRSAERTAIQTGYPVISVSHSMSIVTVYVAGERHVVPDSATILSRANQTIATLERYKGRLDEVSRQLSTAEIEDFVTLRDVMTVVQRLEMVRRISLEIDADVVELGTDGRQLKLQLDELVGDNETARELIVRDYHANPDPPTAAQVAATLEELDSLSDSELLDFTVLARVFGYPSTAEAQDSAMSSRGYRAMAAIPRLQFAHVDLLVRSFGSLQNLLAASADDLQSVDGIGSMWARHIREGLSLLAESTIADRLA
Assay: EMSA

Binder	binding result
B1	no binding
B2	no binding
